This note sets out measurements from patent US20130209489A1 (Amgen, published 2013).

Assay [1] concerns the target T1, mature human myostatin (human, UniProt O14793 267-375).
T1 construct: they are put on this molecule; also called GDF-8; recombinant mature myostatin
Description: ratio of the affinities for GDF11 and myostatin.

The next assay has as its target T2, GDF11 (UniProt O95390 299-407).
T2 construct: also called growth and differentiation factor 11; BMP-11
Description: separate experiment, method not named (Biacore section). A general note: Surface plasmon resonance follows binding to a sensor surface in real time, without labels.

Assay [2] has as its target T3, Peptide H (reduced LysC peptide, 91-97) (human).
T3 peptide: EQIIYGK
Description: BIAcore competition: 12A5-5 pre-incubated with the HPLC peptide fraction in solution, then passed over immobilized human myostatin. As for the experimental part:
(§1) The strategy for characterizing the epitopes bound by anti-myostatin neutralizing monoclonal antibodies was to use various CNBr—, LysC— and chymotrypsin-generated human myostatin peptides and determine which peptides could be bound by the antibody. In one aspect, this was tested in a BIAcore® competition binding assay where the binding of 12A5-5 to human myostatin immobilized on a BIAcore® chip was determined in the presence or absence of each of the various isolated HPLC peptide fractions. In the absence of any competing peptides, 12A5-5 was able to bind the human myostatin on the chip and produce an RU (resonance unit) response. […] This general procedure was repeated individually for each peptide. […] These binding patterns, coupled with the known identity of the various myostatin peptides were used to determine which regions of myostatin were important (or necessary) for the binding of antibody 12A5-5.

Assay [3] concerns the target T4, Peptide F (LysC peptide, 79-90) (human).
T4 peptide: MSPINMLYFNGK
The description is as above. The method, then: as §1

In assay [4] the target is T5, Peptide B (CNBr peptide, 85-101) (human).
T5 construct: both are this molecule; also called Peptide D; Reduced CNBr peptide
T5 peptide: LYFNGKEQIIYGKIPAM
The assay is described as above. The method, then:
as §1

Assay [5] addresses T6, Peptide J (reduced LysC peptide, 98-109) (human).
T6 construct: From TCEP reduction of peptide G
T6 peptide: IPAMVVDRCGCS
Described as above. As for the experimental part: as §1

Assay [6] addresses T7, Peptide K (reduced LysC peptide, 40-54) (human).
T7 construct: From TCEP reduction of peptide G
T7 peptide: ANYCSGECEFVFLQK
The description is as above. As for the experimental part: as §1

In assay [7] the target is T8, Peptide M (reduced LysC peptide, 1-36) (human).
T8 construct: From TCEP reduction of peptide G
T8 peptide: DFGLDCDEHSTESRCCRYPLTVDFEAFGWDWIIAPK
The assay is described as above. The method, then: as §1

For assay [8], the target named is T9, Peptide N (chymotryptic peptide, Cys knot, dimer) (human).
T9 chain 1: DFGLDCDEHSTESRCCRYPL
T9 chain 2: KANYCSGECEFVF
T9 chain 3: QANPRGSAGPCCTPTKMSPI
T9 chain 4: GKIPAMVVDRCGCS
Described as above. As for the experimental part: as §1

Assay [9] addresses T10, Peptide I (reduced LysC peptide, 55-78) (human).
T10 construct: From TCEP reduction of peptide G
T10 peptide: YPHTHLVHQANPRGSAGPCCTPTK
The description is as above. As for the experimental part: as §1

The target in assay [10] is T1, mature human myostatin. Nature of the assay: cell-based or functional assay.
Assay [11] addresses T1, mature human myostatin. Description: cell-based or functional assay. The source holds these as a separate data set.
In another assay the target is promyostatin (UniProt O14793 24-375, limits assumed). Nature of the assay: KinExA solution equilibrium assay, promyostatin-coated beads. The text has this: Solution-based equilibrium-binding assays using KinExA® technology (Sapidyne Instruments, Inc.) are employed to determine the dissociation equilibrium (Kd) of myostatin binding to antibody molecules. This solution-based assay is considered to be more sensitive than the BIAcore® assay in some instances. Reacti-Gel 6×(a highly reactive, cross-linked 6% agarose bead for immobilization of amine-containing ligands; Thermo Scientific Pierce, Rockford, Ill.) is pre-coated with about 50 microG/ml myostatin overnight, and then blocked with bovine serum albumin (BSA; 1 mg/ml). Antibody samples (10 pM, and 30 pM) were incubated with various concentrations (0.5 pM to 5 nM) of myostatin in sample buffer containing 0.1 mg.ml BSA at room temperature for eight hours before being run through the myostatin-coated beads. The amount of the bead-bound antibody is quantified by fluorescent (Cy5) labeled goat anti-human-Fc antibody at 1 mg/ml in SuperBlock® (an optimized protein-based solution for blocking excess binding sites; Thermo Scientific Pierce, Rockford, Ill.). The binding signal is proportional to the concentration of free antibody at equilibrium with a given myostatin concentration. […]
A KinExA™ assay similar to the one previously described was run, using promyostatin instead of mature myostatin. […] The amount of the bead-bound antibody is quantified substantially as previously described.
A general note: A kinetic exclusion assay measures how much of one partner remains free in solution.

T2 sequence (O95390 299-407 limits assumed): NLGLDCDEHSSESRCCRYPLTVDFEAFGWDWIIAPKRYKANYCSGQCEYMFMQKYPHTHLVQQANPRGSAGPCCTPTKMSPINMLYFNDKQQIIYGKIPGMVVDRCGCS

B1: anti-myostatin neutralizing monoclonal antibody 12A5-5 (antibody, V domains shown)
VH: EVQLVESGGGLVQPGGSLRLSCAASGFTFSRYWMNWVRQAPGKGLEWVAQIRLKSDNYATHYAESVKGRFTISRDNAKNSLYLQMNSLRAEDTAVYYCTEGLDYWGQGTTVTVSS
VL: DIQMTQSPSSLSASVGDRVTITCKASQDINKYVAWYQQKPGKAPKLLIYYTSWLQPGVPSRFSGSGSGTDFTFTISSLQPEDIATYYCLQYDNLLYTFGQGTKLEIK
notes: in the KinExA assay it was detected with a goat anti-human-Fc antibody, so it carries a human Fc; also called Mab 12A5-5; MAb 12A5-5
As usually defined, the Kd is the free concentration of one partner at which half of the binding sites on the other are occupied at equilibrium, for simple one-to-one binding. A high value points to lower affinity. As to B1, the “fold selectivity for myostatin over GDF11” value with mature human myostatin [1] was around 10000 fold. In addition, the Kd with GDF11 is around 180 nM; in the assay with promyostatin, around 0.002 nM. For the same molecule, the binding result in assay [2], in assay [3], in assay [4], in assay [5], in [6] and in assay [7] was “no binding (tested: peptide concentration not printed)” in each case. For the same molecule, the binding result in assay [8] and in [9] was “no binding (tested: peptide concentration not printed)” throughout. The “Cell Assay (IC50), inhibition of myostatin activity” value with mature human myostatin [10] was determined as 1.2 nM. The “IC50 (nM), C2C12/pMARE luciferase reporter cell myostatin activity assay” value with mature human myostatin [11] worked out at 1.85 nM.
